Substitutions are numbered along the chain they refer to.
B1: 523 (protein)
chain: LDNGLARTPTMGWLHWERFMCNLDCQEEPDSCISEKLFMEMAERMVSEGWKDAGYEYLCIDDCWMAPQRDSEGRLQADPQRFPHGIRQLAMHVHSKGLKLGIYADVGNKTCAGFPGSFGYYDIDAQTFADWGVDLLKFDGCYCDSLENLADGYKHMSLALNRTGRSIVYSCEWPLYMWPFQKPNYTEIRQYCNHWRNFADIDDSWASIKSILDWTSRNQERIVDVAGPGGWNDPDMLVIGNFGLSWDQQVTQMALWAIMAAPLFMSNDLRHISPQAKALLQDKDVIAINQDPLGKQGYQLRKGDNFEVWERPLSGDAWAVAIINRQEIGGPRSYTIPVASLGKGVACNPACFITQLLPVKRQLGFYNWTSRLKSHINPTGTVLLQLENTMQMSLKDLL
modifications: Synthetic Polypeptide sequence of Variant No. 523 of mature Human GLA
B2: 528 (protein)
chain: B1 chain with M91N, D130Q
modifications: Synthetic Polypeptide sequence of Variant No. 528 of mature Human GLA
B3: 529 (protein)
chain: B1 chain with M91N, K182A
modifications: Synthetic Polypeptide sequence of Variant No. 529 of mature Human GLA
B4: 527 (protein)
chain: B1 chain with M91N, H92E
modifications: Synthetic Polypeptide sequence of Variant No. 527 of mature Human GLA
B5: 535 (protein)
chain: B1 chain with M91N, K182T
modifications: Synthetic Polypeptide sequence of Variant No. 535 of mature Human GLA
B6: 536 (protein)
chain: B1 chain with M91N, K182V
modifications: Synthetic Polypeptide sequence of Variant No. 536 of mature Human GLA
B7: 537 (protein)
chain: B1 chain with M91N, K182Y
modifications: Synthetic Polypeptide sequence of Variant No. 537 of mature Human GLA
B8: 538 (protein)
chain: B1 chain with M91N, A287C
modifications: Synthetic Polypeptide sequence of Variant No. 538 of mature Human GLA
B9: 524 (protein)
chain: B1 chain with M91V
modifications: Synthetic Polypeptide sequence of Variant No. 524 of mature Human GLA
B10: 534 (protein)
chain: B1 chain with M91N, K182R
modifications: Synthetic Polypeptide sequence of Variant No. 534 of mature Human GLA
B11: 530 (protein)
chain: B1 chain with M91N, K182E
modifications: Synthetic Polypeptide sequence of Variant No. 530 of mature Human GLA
B12: 526 (protein)
chain: B1 chain with R74H, M91N
modifications: Synthetic Polypeptide sequence of Variant No. 526 of mature Human GLA
B13: 531 (protein)
chain: B1 chain with M91N, K182H
modifications: Synthetic Polypeptide sequence of Variant No. 531 of mature Human GLA
B14: 533 (protein)
chain: B1 chain with M91N, K182Q
modifications: Synthetic Polypeptide sequence of Variant No. 533 of mature Human GLA
B15: 532 (protein)
chain: B1 chain with M91N, K182M
modifications: Synthetic Polypeptide sequence of Variant No. 532 of mature Human GLA
B16: 525 (protein)
chain: B1 chain with Q76H, M91N, W368A
modifications: Synthetic Polypeptide sequence of Variant No. 525 of mature Human GLA

Key:
Assay type in all cases: biochemical
[1] = HTP-analysis of yeast culture supernatants, no challenge (MUGal hydrolysis); conditions: activity of the variant/activity of Rd3BB (SEQ ID NO: 13)
Outline: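 GLA variants expressed in yeast INVSc1, secreted into SD-Ura broth over 66-84 h at 30° C; clarified supernatants tested without challenge. Supernatant mixed with McIlvaine buffer pH 4.8 and 2 mM MUGal (citrate/KCl, pH 4.6), 37° C for 30-180 min, carbonate-quenched, fluorescence Ex 355/Em 448 nm.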

[2] = HTP-analysis of supernatants pretreated with acid (MUGal hydrolysis); conditions: activity of the variant/activity of Rd3BB (SEQ ID NO: 13); challenge at pH 3.7
Outline: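 GLA variants were secreted from INVSc1 yeast grown 66-84 h at 30° C. in SD-Ura with 2% glucose; supernatants were mixed with McIlvaine buffer pH 3.3-4.3 and held at 37° C. for 1-3 h. Residual activity on MUGal at pH 4.8 was then measured by fluorescence.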

[3] = HTP-analysis of supernatants pretreated with base (MUGal hydrolysis); conditions: activity of the variant/activity of Rd3BB (SEQ ID NO: 13); challenge at pH 9.7
Outline: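 Supernatants from INVSc1 yeast expressing GLA variants (SD-Ura, 66-84 h, 30° C) were mixed with McIlvaine buffer pH 7.0-8.2 or 200 mM sodium bicarbonate pH 9.1-9.7 and held 1-18 h at 37° C. Residual activity was then measured on MUGal at pH 4.8/4.3, 37° C, 30-180 min, by fluorescence (Ex 355/Em 448 nm).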

Row | Molecule | Relative Activity of GLA Variants After No Challenge (NC) [1] | Relative Activity of GLA Variants After Challenge at pH 3.7 [2] | Relative Activity of GLA Variants After Challenge at pH 9.7 [3]
1 | B1 | + (+ = 1.5 to 5 relative activity over Rd3BB (SEQ ID NO: 13)) | + (+ = 1.5 to 5 relative activity over Rd3BB (SEQ ID NO: 13)) | + (+ = 1.5 to 5 relative activity over Rd3BB (SEQ ID NO: 13))
2 | B2 | + (+ = 1.5 to 5 relative activity over Rd3BB (SEQ ID NO: 13)) | + (+ = 1.5 to 5 relative activity over Rd3BB (SEQ ID NO: 13)) | ++ (++ = >5 to 10 relative activity over Rd3BB (SEQ ID NO: 13))
3 | B3 | + (+ = 1.5 to 5 relative activity over Rd3BB (SEQ ID NO: 13)) | + (+ = 1.5 to 5 relative activity over Rd3BB (SEQ ID NO: 13)) | ++ (++ = >5 to 10 relative activity over Rd3BB (SEQ ID NO: 13))
4 | B4 | + (+ = 1.5 to 5 relative activity over Rd3BB (SEQ ID NO: 13)) | + (+ = 1.5 to 5 relative activity over Rd3BB (SEQ ID NO: 13)) | ++ (++ = >5 to 10 relative activity over Rd3BB (SEQ ID NO: 13))
5 | B5 | + (+ = 1.5 to 5 relative activity over Rd3BB (SEQ ID NO: 13)) | + (+ = 1.5 to 5 relative activity over Rd3BB (SEQ ID NO: 13)) | ++ (++ = >5 to 10 relative activity over Rd3BB (SEQ ID NO: 13))
6 | B6 | + (+ = 1.5 to 5 relative activity over Rd3BB (SEQ ID NO: 13)) | + (+ = 1.5 to 5 relative activity over Rd3BB (SEQ ID NO: 13)) | ++ (++ = >5 to 10 relative activity over Rd3BB (SEQ ID NO: 13))
7 | B7 | + (+ = 1.5 to 5 relative activity over Rd3BB (SEQ ID NO: 13)) | + (+ = 1.5 to 5 relative activity over Rd3BB (SEQ ID NO: 13)) | ++ (++ = >5 to 10 relative activity over Rd3BB (SEQ ID NO: 13))
8 | B8 | + (+ = 1.5 to 5 relative activity over Rd3BB (SEQ ID NO: 13)) | + (+ = 1.5 to 5 relative activity over Rd3BB (SEQ ID NO: 13)) | + (+ = 1.5 to 5 relative activity over Rd3BB (SEQ ID NO: 13))
9 | B9 | − (− = <1.5 relative activity to Rd3BB (SEQ ID NO: 13)) | + (+ = 1.5 to 5 relative activity over Rd3BB (SEQ ID NO: 13)) | + (+ = 1.5 to 5 relative activity over Rd3BB (SEQ ID NO: 13))
10 | B10 | + (+ = 1.5 to 5 relative activity over Rd3BB (SEQ ID NO: 13)) | + (+ = 1.5 to 5 relative activity over Rd3BB (SEQ ID NO: 13)) | ++ (++ = >5 to 10 relative activity over Rd3BB (SEQ ID NO: 13))
11 | B11 | + (+ = 1.5 to 5 relative activity over Rd3BB (SEQ ID NO: 13)) | + (+ = 1.5 to 5 relative activity over Rd3BB (SEQ ID NO: 13)) | ++ (++ = >5 to 10 relative activity over Rd3BB (SEQ ID NO: 13))
12 | B12 | + (+ = 1.5 to 5 relative activity over Rd3BB (SEQ ID NO: 13)) | + (+ = 1.5 to 5 relative activity over Rd3BB (SEQ ID NO: 13)) | ++ (++ = >5 to 10 relative activity over Rd3BB (SEQ ID NO: 13))
13 | B13 | + (+ = 1.5 to 5 relative activity over Rd3BB (SEQ ID NO: 13)) | + (+ = 1.5 to 5 relative activity over Rd3BB (SEQ ID NO: 13)) | ++ (++ = >5 to 10 relative activity over Rd3BB (SEQ ID NO: 13))
14 | B14 | + (+ = 1.5 to 5 relative activity over Rd3BB (SEQ ID NO: 13)) | + (+ = 1.5 to 5 relative activity over Rd3BB (SEQ ID NO: 13)) | ++ (++ = >5 to 10 relative activity over Rd3BB (SEQ ID NO: 13))
15 | B15 | + (+ = 1.5 to 5 relative activity over Rd3BB (SEQ ID NO: 13)) | + (+ = 1.5 to 5 relative activity over Rd3BB (SEQ ID NO: 13)) | ++ (++ = >5 to 10 relative activity over Rd3BB (SEQ ID NO: 13))
16 | B16 | + (+ = 1.5 to 5 relative activity over Rd3BB (SEQ ID NO: 13)) | ++ (++ = >5 to 10 relative activity over Rd3BB (SEQ ID NO: 13)) | ++ (++ = >5 to 10 relative activity over Rd3BB (SEQ ID NO: 13))
